# Assay: soluble on expression in E. coli; label from the status in PepcDB or PDB records
row,Sequence,soluble on expression in E. coli
1,MTELDQFWPACLARLEAELSSQQFNTWIKPLTAEAGDEGIALFAPNRFIMQFIKDRFLPRIEELAVELVGELPVELRLGAPTARPAAPVAGNSQPKAKEPAKAAASAPAAPSPAKQAAVKAIGGSHESTRLNPSFTFDTLVTGKGNQLARAAAMQIAENPGDQAYNPLFVYGGVGLGKTHLIQAIGNHVFQKNPQAKIRYIHAERYVADIMRAYQHKAFDEFKRYYHSLDLLLIDDIQFFAGKNRTQEEFFYAFNALIEGGKQVIMTCDSYPKQIEGMEERLISRFSWGLTVEIQPPELEMRVAILMKKAEADSIKLEHNVAFFIAQNVRSNVRELEGALKRVVAYARFTSQNITLELVKEALKDILAAGNRQVTVDAIQKTVAEYYKIKLSDMHSKKRSRDIARPRQVAMALAKELTQLSLPNIGDAFGGRDHTTVLHACKTITEMRASDADIAHDYEALLSMLRNLEHHHHHH,not soluble
2,MTENAPKFKQISAEIEKKIRDGLYVSAQKLPSEYDLAKEYNCSRLTIRKAIDDLIRKNILVKRHGKGSYVMSQAKIQSGRAGLQGFTEAAKAYGKKSQTEVISFEEVVHPAEKIREALQVGKNEAIYELIRRRMLDGEPMTVEKIYLPQAYVQGHTKQDFEGSLFCLIEKNVEIAYSHQEIEAILVEAEISELLNVPVGQPLLQVHSITYALDATPILYDVSLYRADRYTFKNTLTRYSPSENNQVELGGSWNE,not soluble
3,MTENVPLTRPQLRRLLRNARRALTPAQQRQATLGLYRQLAQHPLFRRARHIALYLPNDGEIDPRLLMREAQRRGKCIYLPVLHAWPRTRMVFQRFEQGEKLKPNRFRIPEPIIDRKRQRPIWALDLILLPLVGFDEVGGRLGMGGGFYDRSLAYQARRQTWKKPLLLGLAHECQKVERLAQASWDVPLQGTVSDRGWYLAPRLEHHHHHH,soluble
4,MTEQPAVAAPYDVLFEPVQIGPFTTKNRFYQVPHCNGMGYRDPSAQASMRKIKAEGGWSAVCTEQVEIHATSDIAPFIELRIWDDQDLPALKRIADAIHEGGGLAGIELAHNGMNAPNQLSRETPLGPGHLPVAPDTIAPIQARAMTKQDIDDLRRWHRNAVRRSIEAGYDIVYVYGAHGYSGVHHFLSKRYNQRTDEYGGSLENRMRLLRELLEDTLDECAGRAAVACRITVEEEIDGGITREDIEGVLRELGELPDLWDFAMGSWEGDSVTSRFAPEGRQEEFVAGLKKLTTKPVVGVGRFTSPDAMVRQIKAGILDLIGAARPSIADPFLPNKIRDGRLNLIRECIGCNICVSGDLTMSPIRCTQNPSMGEEWRRGWHPERIRAKESDARVLVVGAGPSGLEAARALGVRGYDVVLAEAGRDLGGRVTQESALPGLSAWGRVKEYREAVLAELPNVEIYRESPMTGDDIVEFGFEHVITATGATWRTDGVARFHTTALPIAEGMQVLGPDDLFAGRLPDGKKVVVYDDDHYYLGGVVAELLAQKGYEVSIVTPGAQVSSWTNNTFEVNRIQRRLIENGVARVTDHAVVAVGAGGVTVRDTYASIERELECDAVVMVTARLPREELYLDLVARRDAGEIASVRGIGDAWAPGTIAAAVWSGRRAAEEFDAVLPSNDEVPFRREVTQLA,soluble
5,MTEQTFSIREAVPTDADQLLSVMSKIGSETPYLVMDERGMAMSTTELAENLATLYESPNNVLLVALAGEAIIGTASVSASSKKRMEHIGEIGISILKEYWGYGLGSILMEELIRWAHESHVIRRLELTVQDRNQRAIHVYKKLGFETEAIMPRGAKTDQGEFLDVHLMRLLID,not soluble
6,MTEVYDLEITTNATDFPMEKKYPAGMSLNDLKKKLELVVGTTVDSMRIQLFDGDDQLKGELTDGAKSLKDLGVRDGYRIHAVDVTGGNEDFKDESMVEKYEMSDDTYGKRTDSVRAWKKKMQEEQGSAAPMENESDKLNEEAAKNIMVGNRCEVTVGAQMARRGEVAYVGATKFKEGVWVGVKYDEPVGKNDGSVAGVRYFDCDPKYGGFVRPVDVKVGDFPELSIDEI,soluble
7,MTFEEKRKHLETTYPNKRTPESRAKSREILKLIADNLEMFPIASPESSSSKAKTDPMSRLEHGSEFNDLTVPRVEKLTPVSELYSIENTSLKFGTEDDFSDLSYSNTSPFQSVSTLYDQPSTPFSDDSDLEATPRTCVQ,not soluble
8,MTFLRYAIYFLPPASEAWAGFGASWLGWDVETGQELAHPAETGLDVAALTATPRKYGLHATMKPPFRLAEGQDVDALRRACATLAASRPAVTLDGLEIARLGRFLALRPVGELGALNALAAACVTELDPFRAPATPQELVRRRAARLSPEQDAHLLSWGYPYVLDQFRFHITLTGRLDDDMLMQAQTLLQRRLGPLLPVPFTLADLALVGEAGDGRFHLIHRYALSR,not soluble
9,MTGAATAAENSATQLEFYRKALNFNVIGRYDPKIKQLLFHTPHASLYKWDFKKDEWNKLEYQGVLAIYLRDVSQNTNLLPVSPQEVDIFDSQNGSNNIQVNNGSDNSNRNSSGNGNSYKSNDSLTYNCGKTLSGKDIYNYGLIILNRINPDNFSMGIVPNSVVNKRKVFNAEEDTLNPLECMGVEVKDELVIIKNLKHEVYGIWIHTVSDRQNIYELIKYLLENEPKDSFA,soluble
10,MTGAVCPGSFDPVTLGHVDIFERAAAQFDEVVVAILVNPAKTGMFDLDERIAMVKESTTHLPNLRVQVGHGLVVDFVRSCGMTAIVKGLRTGTDFEYELQMAQMNKHIAGVDTFFVATAPRYSFVSSSLAKEVAMLGGDVSELLPEPVNRRLRDRLN,soluble
11,MTGITIFYGDNIIRYVVNTKKGLRPYFKQLPDNYQAKFELNLMSKFSNFIINKPFSAINTAARHIFSRYLLENKHLFYQYFKISNTGIDHLEQLINVNFFSSDRTSFCECNRFP,not soluble
12,MTGKSVREVPMTEEILAESIALRLRRDILRGKLVPGTSIKERDNAAEMGVSRTPMREAIRILANEGLVQLRPSRSPIVTQLSLNEVVSFIEVLSALEMLAVTLACERATKIDIAHVRGAERKLATQYDRIDQVERFELDMDFHIALTRASHNQALSDTHMSYLRRLWYARFQSARNRHTKDRVLQQHAALVDAIERRDPTMAQTELSSHLENLRINVHAYFERAEREQLQLKNSA,not soluble
13,MTGMRKTLKATLAEARAQVEAALKEEGFGILTEIDVAATLKAKLGLEKPPYLILGACNPNLAARALEALPEIGLLLPCNVVLREAEEGVEVLIQDPKEMFRVLPEATQRALAPVAEEARTRLSRALSRL,soluble
14,MTGPTPTEAVDITVSVGGFKVGDQNYPINPKITFTNNTGQAIPGGTEFQFDIPVSAPDNAKDQSGGGLKVIASGHTRANNIGGLDGVMHRVSFSLPAWKDLPAGGTYELDMVYYLPISGPANYSVISGGKEFAFKFEQPDLPIGDLNAGTGGGGTTEPGSCDTAGLVTYPNLPQTDLEHHHHHH,soluble
15,MTGTYEQPVIDATYHNDDQGGHANQLVLKYVEDRKLSKVFKRICDSFKDYYNQPEDMTDEELDYQRVVSLSKSTQGKVNNRDTLIAFISDHNQLAEHLSMNYKEMTPEDLGAILESISQAFNHLYDMVVEGQLLVK,not soluble
16,MTGYACNHPNIYQSCNCQSFCQPYTHPHEMYYHHGYGCNGHCLDHQESMCEEDDECGMKKRKKHRKKNKKKKNKKKFRFSDEEDDEEKVAHHKKKPIEEDDDEFPLPPNSEEVAEASKSSKKEEDWEDDDKWERKFVSQTTTPAPRQAASGGGLGGLGLGNGGLFGISSGVGVGIPGVGPIGVSSGLGIGK,not soluble
17,MTIETIKRIIEEENVRFIRLQFTDINGTLKNLEITPDVFLESWEDGIMFDGSSIEGFVRIEESDMYLKPVLDTFAVLPWTVDGAKSARVICDVYTPDGKPFEGDPRYRLRRMMEKAEQLGYTPYAGPEMEFFILPINEKGEPVPEFLDHGGYFDLLPLSKVEEIRRDIAIALEKMGITVEATHHEVAPSQHEVDFRYDTFLRTADNAQTVKLVIKTMAIFHGYHATFMPKPFYGVNGSGMHVHMSLFRGDKNAFYDPDDPLGLSKELRYFVGGILKHAKALAAVTNPTINSYKRLVPGYEAPVYISWSVGNRSALIRIPKARGKATRLEYRSPDPSCNIYLAFAAILAAGLDGIINKIEPPAPVEENIYHMTSERREELNIESLPGSLKEAVEELKKDDVIIDALGEHIFEKFVEAAEKDWKEFSTYVTNWELQRYLYL,soluble

# From the DeepSol protein solubility set
